Reference: patent US9150659B2, “Anti-tace antibody molecules and their uses” (priority 2011, dated 2015)
One block for each molecule: values may come before it.

What was measured:
[1] = molecular target: T1, Recombinant human ADAM10 ectodomain (Homo sapiens, UniProt O14672); test: ADAM10 quench fluorescent peptide cleavage assay; type: biochemical; settings: titrated concentrations
T1 construct: Recombinant human ADAM10 ectodomain
T1 sequence (O14672 214-672 limits assumed): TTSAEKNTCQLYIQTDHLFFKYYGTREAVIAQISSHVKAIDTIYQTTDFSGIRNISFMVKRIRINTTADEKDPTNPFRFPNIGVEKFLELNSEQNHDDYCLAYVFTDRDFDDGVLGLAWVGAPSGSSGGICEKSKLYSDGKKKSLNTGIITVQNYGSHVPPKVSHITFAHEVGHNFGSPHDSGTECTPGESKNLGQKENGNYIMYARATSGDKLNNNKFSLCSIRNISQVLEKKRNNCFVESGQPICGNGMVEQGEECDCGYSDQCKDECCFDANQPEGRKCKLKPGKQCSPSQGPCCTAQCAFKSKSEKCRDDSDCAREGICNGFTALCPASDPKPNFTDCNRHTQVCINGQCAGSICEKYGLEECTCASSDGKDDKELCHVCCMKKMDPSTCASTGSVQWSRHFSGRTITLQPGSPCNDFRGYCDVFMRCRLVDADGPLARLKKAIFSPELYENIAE

[2] = molecular target: T2, Recombinant human TACE catalytic domain (Homo sapiens, UniProt P78536); test: Quenched fluorescent peptide cleavage assay, isolated TACE catalytic domain; type: biochemical; settings: 1 nM TACE catalytic domain; read-out: IC50 Cat:WT, isolated catalytic domain, quenched fluorescent peptide
T2 construct: The mature catalytic domain of TACE (Arg^215-Val^477-GlySer-His^6) was prepared using an identical baculovirus system; GlySer-His6 (C); made in house; host or cells: baculovirus system (Sf9)
T2 sequence (P78536 215-477): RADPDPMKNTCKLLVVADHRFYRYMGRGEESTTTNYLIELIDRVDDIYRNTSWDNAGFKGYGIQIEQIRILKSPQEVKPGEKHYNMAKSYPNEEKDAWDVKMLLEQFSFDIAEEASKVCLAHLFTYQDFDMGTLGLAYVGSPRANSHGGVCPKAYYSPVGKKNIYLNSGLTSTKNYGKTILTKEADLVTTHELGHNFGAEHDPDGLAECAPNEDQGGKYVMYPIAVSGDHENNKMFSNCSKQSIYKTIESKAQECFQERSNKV
Procedure: (§1) Recombinant human TACE catalytic domain and TACE ectodomain were diluted to 1 nM in 50 mM Tris-HCl, 10 mM CaCl2, 0.05% Brij35, 1% DMSO, pH 7.4 and pre-incubated with titrated concentrations of inhibitor for 4-hours at room temperature. Following incubation, each reaction was separated into 200 μL technical quadruplets in a 96-well black Microwell plate (Nunc 237105), and the fluorogenic substrate methoxycoumarinyl acetyl-Lys-Pro-Leu-Gly-Leu-dinitrophenyl diaminopropionyl-Ala-Arg-NH2 (Peptides International SMO-3670-PI) was added to each well (final concentration 1 μM). Every 30 seconds fluorescence was excited at 320 nm and emission recorded at 405 nm in a Tecan Infinite-200 (at 37° C. for 2000 seconds). Individual readings were normalised against a substrate only control and compiled to produce a mean trend for each variable. A linear regression slope for each reaction was calculated in GraphPad Prism (ΔFU sec^−1) and proteolytic activity was expressed as the slope percentage of an untreated control (% ΔFU sec^−1). Final results represent mean values from three separate experiments.
(§2) Purified recombinant scFvs were subjected to an 8-point fluorometric titration ([TACE]=1 nM) (as above) and a 16-point titration ELISA ([TACE]-500 nM). […] Change in Gibb's Free Energy (ΔΔG) was calculated using the equation: ΔΔG=+RT1n(Ala/WT).

[3] = molecular target: T3, Recombinant human TACE ectodomain (Arg215-Arg651) (Homo sapiens, UniProt P78536); test: Quenched fluorescent peptide cleavage assay, TACE ectodomain; type: biochemical; settings: 1 nM TACE ectodomain; read-out: IC50, TACE ectodomain proteolysis, quenched fluorescent peptide
T3 construct: Mature recombinant TACE ectodomain (Arg^215-Arg^651) was expressed in baculovirus infected sf9 cells; made in house; host or cells: baculovirus infected Sf9 cells
T3 sequence (P78536 215-651): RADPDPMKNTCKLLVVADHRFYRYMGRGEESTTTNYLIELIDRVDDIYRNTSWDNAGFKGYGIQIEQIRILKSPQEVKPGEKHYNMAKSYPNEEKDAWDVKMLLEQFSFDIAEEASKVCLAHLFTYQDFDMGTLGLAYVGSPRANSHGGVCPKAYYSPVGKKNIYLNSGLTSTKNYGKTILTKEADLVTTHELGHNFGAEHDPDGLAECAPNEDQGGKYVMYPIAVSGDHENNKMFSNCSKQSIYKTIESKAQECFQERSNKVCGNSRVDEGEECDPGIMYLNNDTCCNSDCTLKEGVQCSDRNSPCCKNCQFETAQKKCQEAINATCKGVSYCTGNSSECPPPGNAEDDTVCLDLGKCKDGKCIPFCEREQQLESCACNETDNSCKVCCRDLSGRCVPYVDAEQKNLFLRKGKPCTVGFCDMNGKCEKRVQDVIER
Procedure: as §1, §2

[4] = molecular target: T4, PDI treated TACE ectodomain (Homo sapiens, UniProt P78536); test: Antibody binding after PDI treatment of the TACE ectodomain
T4 construct: Mature recombinant TACE ectodomain (Arg^215-Arg^651) was expressed in baculovirus infected sf9 cells; made in house; host or cells: baculovirus infected Sf9 cells
T4 sequence (P78536 215-651): as above

effect on ADAM10 proteolytic activity [1]: rapidly inhibits
Molecule: CC(C)(C)[C@H](NC(=O)[C@H](CCCc1ccc(Cl)cc1)CC(=O)NO)C(N)=O [CT1746, reference compound]

IC50 [2]: 2.3 nM | IC50 [3]: 0.89 nM
B1: D1(A12) scFv: scFv format; VH SEQ ID NO: 7, VL SEQ ID NO: 9 (antibody, listed as Homo sapiens, V domains shown)
VH: EVQLVESGGGLVRPGGSLRLSCAASGFTFSSYAMSWVRQAPGKGLEWVSAISGSGGSTYYADSVKGRFTISRDNTKNSLYLQMTSLRADDTAFYYCVKDFGPGYGTGWFDYWGPGTLVTVSA
VL: SDIQMTQSPSSLSASVGDRVTITCRASQSISSYLNWYQQKPGKAPKLLIHDASSLQSGVPSRFSGSGSGTDFTLTISSLQPEDFATYYCQQSFSIPLTFGGGTKMDIKR
modifications: scFv linker
immunoreactivity following PDI treatment of the TACE ectodomain [4]: largely resistant to PDI modulation
